Changes are numbered by the printed parent chain. Names may count otherwise.
T1: His-CEP290-N (aa 1–887) (Drosophila, UniProt Q9W0M1 1-887)
T1 construct: Drosophila centrosomal protein 290 (CEP290); Cloned into pET28a; also called CEP290 N-terminus; source: E. coli BL21 (DE3), purified (His resin)
T1 sequence (looked up): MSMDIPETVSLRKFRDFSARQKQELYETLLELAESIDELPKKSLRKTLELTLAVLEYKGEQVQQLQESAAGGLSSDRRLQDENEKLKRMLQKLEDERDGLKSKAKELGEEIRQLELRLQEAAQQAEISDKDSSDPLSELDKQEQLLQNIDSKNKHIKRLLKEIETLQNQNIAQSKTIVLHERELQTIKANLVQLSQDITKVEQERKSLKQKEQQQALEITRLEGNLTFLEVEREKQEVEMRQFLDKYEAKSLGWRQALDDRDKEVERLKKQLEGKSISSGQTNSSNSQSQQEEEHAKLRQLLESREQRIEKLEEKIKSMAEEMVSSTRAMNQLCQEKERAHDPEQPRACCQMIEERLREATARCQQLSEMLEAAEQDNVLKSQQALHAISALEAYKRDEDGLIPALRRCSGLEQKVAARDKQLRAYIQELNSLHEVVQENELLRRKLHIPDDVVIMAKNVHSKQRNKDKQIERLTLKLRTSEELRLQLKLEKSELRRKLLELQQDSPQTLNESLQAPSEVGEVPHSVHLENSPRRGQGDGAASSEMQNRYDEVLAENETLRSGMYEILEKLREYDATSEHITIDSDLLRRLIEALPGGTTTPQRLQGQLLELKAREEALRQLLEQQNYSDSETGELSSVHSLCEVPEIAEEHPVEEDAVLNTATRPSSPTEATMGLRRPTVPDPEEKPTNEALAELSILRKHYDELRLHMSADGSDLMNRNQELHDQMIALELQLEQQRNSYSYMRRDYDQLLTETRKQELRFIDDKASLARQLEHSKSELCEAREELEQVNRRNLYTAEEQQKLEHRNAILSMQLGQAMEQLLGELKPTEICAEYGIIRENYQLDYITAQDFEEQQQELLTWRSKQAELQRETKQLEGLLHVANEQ

B1: CEP290 N (aa 401–650) (domain or fragment, Drosophila, UniProt Q9W0M1 401-650, looked up)
chain: GLIPALRRCSGLEQKVAARDKQLRAYIQELNSLHEVVQENELLRRKLHIPDDVVIMAKNVHSKQRNKDKQIERLTLKLRTSEELRLQLKLEKSELRRKLLELQQDSPQTLNESLQAPSEVGEVPHSVHLENSPRRGQGDGAASSEMQNRYDEVLAENETLRSGMYEILEKLREYDATSEHITIDSDLLRRLIEALPGGTTTPQRLQGQLLELKAREEALRQLLEQQNYSDSETGELSSVHSLCEVPEIAE
notes: Drosophila centrosomal protein 290 (CEP290); This construct is not described in the methods; probably His-tagged and made in E. coli like His-CEP290-N
B2: GST-DZIP1-N (aa 1–293) (domain or fragment, Drosophila, UniProt Q9VC70 1-293, looked up)
chain: MGFKGKYPQMVRETGFKLRQYRDGPLDWRLMGSYETERILREQNFELVDKALTHLSEAPLGTVLETHILDSGIAKYFVMSQYAIQYLMCCRTYLDECVTDLKEAHTTAQEEIATLRKSLSESNNEVVQLHKRITQIEAIREVVYPCHLCTKNFISNEALNVHIGRKHRVASPPSLTSATGKEKDRDKATDVHLINTIKMELEIKQLKERLNAAERNIKERSTGSKRVSPRQEQRHVGIQSNLAEPKEKDEDSGEARQSEASERKEQLTGLAERLSNFEEWQTQLKQSNEQFIQ
notes: Cloned into pGEX-4T-1; also called N-terminus of DZIP1; source: E. coli BL21 (DE3), purified (Glutathione Sepharose)
B3: CEP290 N (aa 651–887) (domain or fragment, Drosophila, UniProt Q9W0M1 651-887, looked up)
chain: EHPVEEDAVLNTATRPSSPTEATMGLRRPTVPDPEEKPTNEALAELSILRKHYDELRLHMSADGSDLMNRNQELHDQMIALELQLEQQRNSYSYMRRDYDQLLTETRKQELRFIDDKASLARQLEHSKSELCEAREELEQVNRRNLYTAEEQQKLEHRNAILSMQLGQAMEQLLGELKPTEICAEYGIIRENYQLDYITAQDFEEQQQELLTWRSKQAELQRETKQLEGLLHVANEQ
notes: as for B1
B4: His-Rab8 (natural protein, Drosophila, UniProt O18338 1-207, looked up)
chain: MAKTYDYLFKLLLIGDSGVGKTCILFRFSEDAFNTTFISTIGIDFKIRTIELDNKKIKLQIWDTAGQERFRTITTAYYRGAMGIMLVYDITQEKSFENIKNWIRNIEENASADVEKMLLGNKCELTDKRQVSKERGEQLAIEYGIKFMETSAKASINVEEAFLTLASDIKAKTEKRMEANNPPKGGHQLKPMDSRTKDSWLSRCSLL
notes: Drosophila Rab8; Cloned into pET28a; source: E. coli BL21 (DE3), purified (His resin)
B5: His-Rab8^T22N (natural protein, Drosophila, UniProt O18338 1-207, looked up)
chain: B4 chain with T22N
notes: Drosophila Rab8 with T22N; Cloned into pET28a; also called Rab8^GDP-mimicking mutant; source: E. coli BL21 (DE3), purified (His resin)
B6: GST-DZIP1-C (aa 294–737) (domain or fragment, Drosophila, UniProt Q9VC70 294-737, looked up)
chain: DINKRLEGLSHALEQSKQASASTPPLEDRVATPCLEDLERILTEKVAEIGKVSAHRLEEVVYHLEEGYKEKLGALERELKQLSVQKVQPEPVQTVPVASKIPKPVVRKEETNIDRIRKQVESEFLKQKHDDDTYSIEEAPRKGSEKPFPQLVTQVQVVEKEQPSAGSSDSNPTYTKSPREPAPNKQETKEATDVSDSLSQEETENEEERSLTEEEGTDVPTSGSEAAREDPTPKTIKPSGRIIKSPQKPLTRKDARKMVNRKLMSHGFDMKSKGISHNSLKRVNSELTEHRNKLKLQHPHFYATRNRIRKFVEKLCSAKFSERAEMLLKHKSPLKPMEVPGKGIPRSAISEKSEEDIASSQGEEQTDEQTDSSEQQTRSPSPQRLVSRDFKARLEEILVKPAATIRGASKSSLSSRPVPLPRKRVMFNTTEDGKSFNDSDDNLK
notes: Cloned into pGEX-4T-1; also called C-terminus of DZIP1; source: E. coli BL21 (DE3), purified (Glutathione Sepharose)

Assays:
Experiment in all cases: pull-down; GST pull-down: purified His-tagged proteins incubated with GST, GST-DZIP1-N or GST-DZIP1-C in 25 mM Tris-HCl pH 7.4, 150 mM NaCl, 0.5% Triton X-100, 1 mM dithiothreitol, 10% glycerol, overnight at 4°C; blot with anti-His antibodies
Settings in all cases: both partners purified
GST-DZIP1-N (aa 1–293) = molecular target: B2
His-CEP290-N (aa 1–887) = molecular target: T1, His-CEP290-N (aa 1–887)
GST-DZIP1-C (aa 294–737) = molecular target: B6

binding result (GST-DZIP1-N (aa 1–293))	binding result (His-CEP290-N (aa 1–887))	binding result (GST-DZIP1-C (aa 294–737))	Binder
binds			B1
	binds		B2
binds		binds	B3
binds			B4
binds			B5
	binds		B6
